The text below walks through data of publication PMC10871292.

For the assay, the target named is Transglutaminase 2 (TG2), wildtype, human, recombinant (human) (UniProt P21980). Description: SAXS.

Take “Transglutaminase 2 (TG2), wildtype, human, recombinant (from UniProt P21980 1-687) (enzyme)”: the percent dimer (initial state, t=0 ms) worked out at 61% and the percent monomer (initial state, t=0 ms) is 39%.
